According to patent US20020052480A1:

Columns and labels:
[1] = biological target: human fibroblast activation protein alpha (FAP), on the cell surface (HT-1080FAP clone 33, 293FAP I/2, MF-SH cells, tumor stromal fibroblasts) (human) (UniProt Q12884); test: flow cytometry, HT-1080FAP clone 33 cells, antibody at 20 ng/ml, anti-human IgG FITC
[2] = biological target: human fibroblast activation protein alpha (FAP), on the cell surface (HT-1080FAP clone 33, 293FAP I/2, MF-SH cells, tumor stromal fibroblasts) (human) (UniProt Q12884); test: flow cytometry competition against 1 µg/ml biotinylated cF19 on HT-1080FAP clone 33 cells; competitor at 31.66 µg/ml
[3] = biological target: human fibroblast activation protein alpha (FAP), on the cell surface (HT-1080FAP clone 33, 293FAP I/2, MF-SH cells, tumor stromal fibroblasts) (human) (UniProt Q12884); test: flow cytometry, HT-1080FAP clone 33 cells, biotinylated antibody at 200.0 ng/ml, streptavidin-FITC
[4] = biological target: human fibroblast activation protein alpha (FAP), on the cell surface (HT-1080FAP clone 33, 293FAP I/2, MF-SH cells, tumor stromal fibroblasts) (human) (UniProt Q12884); test: flow cytometry, MF-SH cells (endogenous FAP), antibody at 4,000 ng/ml
[5] = biological target: human fibroblast activation protein alpha (FAP), on the cell surface (HT-1080FAP clone 33, 293FAP I/2, MF-SH cells, tumor stromal fibroblasts) (human) (UniProt Q12884); test: flow cytometry, HT-1080FAP clone 33 cells, biotinylated antibody at 1,000.0 ng/ml, streptavidin-FITC
[6] = biological target: human fibroblast activation protein alpha (FAP), on the cell surface (HT-1080FAP clone 33, 293FAP I/2, MF-SH cells, tumor stromal fibroblasts) (human) (UniProt Q12884); test: flow cytometry, HT-1080FAP clone 33 cells, biotinylated antibody at 1.6 ng/ml, streptavidin-FITC
[7] = biological target: human fibroblast activation protein alpha (FAP), on the cell surface (HT-1080FAP clone 33, 293FAP I/2, MF-SH cells, tumor stromal fibroblasts) (human) (UniProt Q12884); test: flow cytometry competition against 1 µg/ml biotinylated cF19 on HT-1080FAP clone 33 cells; competitor at 1.00 µg/ml
[8] = biological target: human fibroblast activation protein alpha (FAP), on the cell surface (HT-1080FAP clone 33, 293FAP I/2, MF-SH cells, tumor stromal fibroblasts) (human) (UniProt Q12884); test: flow cytometry competition against 1 µg/ml biotinylated cF19 on HT-1080FAP clone 33 cells; competitor at 3.16 µg/ml
[9] = biological target: human fibroblast activation protein alpha (FAP), on the cell surface (HT-1080FAP clone 33, 293FAP I/2, MF-SH cells, tumor stromal fibroblasts) (human) (UniProt Q12884); test: flow cytometry, HT-1080FAP clone 33 cells, biotinylated antibody at 5,000.0 ng/ml, streptavidin-FITC
[10] = biological target: human fibroblast activation protein alpha (FAP), on the cell surface (HT-1080FAP clone 33, 293FAP I/2, MF-SH cells, tumor stromal fibroblasts) (human) (UniProt Q12884); test: flow cytometry, HT-1080FAP clone 33 cells, antibody at 500 ng/ml, anti-human IgG FITC
[11] = biological target: human fibroblast activation protein alpha (FAP), on the cell surface (HT-1080FAP clone 33, 293FAP I/2, MF-SH cells, tumor stromal fibroblasts) (human) (UniProt Q12884); test: flow cytometry, HT-1080FAP clone 33 cells, antibody at 100 ng/ml, anti-human IgG FITC
[12] = biological target: human fibroblast activation protein alpha (FAP), on the cell surface (HT-1080FAP clone 33, 293FAP I/2, MF-SH cells, tumor stromal fibroblasts) (human) (UniProt Q12884); test: flow cytometry competition against 1 µg/ml biotinylated cF19 on HT-1080FAP clone 33 cells; competitor at 10.00 µg/ml
[13] = biological target: human fibroblast activation protein alpha (FAP), on the cell surface (HT-1080FAP clone 33, 293FAP I/2, MF-SH cells, tumor stromal fibroblasts) (human) (UniProt Q12884); test: flow cytometry, HT-1080FAP clone 33 cells, antibody at 0.8 ng/ml, anti-human IgG FITC
[14] = biological target: human fibroblast activation protein alpha (FAP), on the cell surface (HT-1080FAP clone 33, 293FAP I/2, MF-SH cells, tumor stromal fibroblasts) (human) (UniProt Q12884); test: flow cytometry, HT-1080FAP clone 33 cells, biotinylated antibody at 8.0 ng/ml, streptavidin-FITC
[15] = biological target: human fibroblast activation protein alpha (FAP), on the cell surface (HT-1080FAP clone 33, 293FAP I/2, MF-SH cells, tumor stromal fibroblasts) (human) (UniProt Q12884); test: flow cytometry, HT-1080FAP clone 33 cells, biotinylated antibody at 40.0 ng/ml, streptavidin-FITC
[16] = biological target: human fibroblast activation protein alpha (FAP), on the cell surface (HT-1080FAP clone 33, 293FAP I/2, MF-SH cells, tumor stromal fibroblasts) (human) (UniProt Q12884); test: flow cytometry, HT-1080FAP clone 33 cells, antibody at 4.0 ng/ml, anti-human IgG FITC

Sequence of UniProt Q12884 (Q12884 whole entry): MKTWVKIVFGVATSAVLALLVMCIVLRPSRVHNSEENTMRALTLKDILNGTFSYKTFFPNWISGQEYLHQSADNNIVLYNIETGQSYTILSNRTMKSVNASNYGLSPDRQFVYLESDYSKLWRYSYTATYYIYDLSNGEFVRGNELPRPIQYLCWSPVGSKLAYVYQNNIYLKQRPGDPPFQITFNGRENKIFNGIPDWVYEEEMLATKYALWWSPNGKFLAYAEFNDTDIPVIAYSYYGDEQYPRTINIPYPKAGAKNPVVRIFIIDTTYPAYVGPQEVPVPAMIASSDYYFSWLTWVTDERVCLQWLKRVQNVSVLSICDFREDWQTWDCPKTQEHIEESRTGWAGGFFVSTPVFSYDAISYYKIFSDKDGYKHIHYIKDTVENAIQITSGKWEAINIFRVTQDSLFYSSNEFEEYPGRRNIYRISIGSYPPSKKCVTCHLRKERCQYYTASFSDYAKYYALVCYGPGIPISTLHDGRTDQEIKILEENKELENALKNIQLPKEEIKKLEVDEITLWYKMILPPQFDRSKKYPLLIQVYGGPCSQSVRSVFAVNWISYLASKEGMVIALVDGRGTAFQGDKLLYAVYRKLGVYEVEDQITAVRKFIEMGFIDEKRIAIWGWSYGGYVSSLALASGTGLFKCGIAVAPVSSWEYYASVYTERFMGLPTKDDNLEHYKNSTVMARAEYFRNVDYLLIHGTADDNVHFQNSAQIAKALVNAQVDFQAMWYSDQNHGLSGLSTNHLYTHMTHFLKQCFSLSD

Mean fluorescence intensity [1]: 0.12
Mean fluorescence concentration [2]: 10.3
Mean fluorescence intensity [3]: 0.2
Mean fluorescence intensity [4]: 0.6
Mean fluorescence intensity [5]: 0.2
Mean fluorescence intensity [6]: 0.3
Mean fluorescence concentration [7]: 9
Mean fluorescence concentration [8]: 11.3
Mean fluorescence intensity [9]: 0.2
Mean fluorescence intensity [10]: 0.12
Mean fluorescence intensity [11]: 0.12
Mean fluorescence concentration [12]: 9.8
Mean fluorescence intensity [13]: 0.12
Mean fluorescence intensity [14]: 0.2
Mean fluorescence intensity [15]: 0.2
Mean fluorescence intensity [16]: 0.12
Substance: hIgG1 (human immunoglobulin, IgG1 subclass), isotype control (antibody)
